The source of these data is article PMC7930385, “A Novel SOD1 Intermediate Oligomer, Role of Free Thiols and Disulfide Exchange” (Frontiers in Neuroscience, 2020).

This series concerns the molecule itself. The experiment in a line: thioflavin-T fluorescence of fibrillation + electron microscopy; 40 μM apo protein in 10 mM potassium phosphate, pH 7.0, with TCEP (0-10 mM) and 40 μM thioflavin-T, 37°C, agitated at 300 rpm in 96-well plates with a Teflon ball; fibrils seen by negative-stain EM.

B1: apo C6A/C111S human SOD1 (apo AS-SOD1) (enzyme)
chain: not shown
modifications: no N-terminal acetylation (expression in E. coli); metal-free (apo); C57-C146 disulfide intact at the start and reduced by TCEP in the reaction
notes: Cu/Zn superoxide dismutase 1 (SOD1), human, 153-residue subunit, both free cysteines removed (C6A, C111S); numbers count on: the mature protein (numbered from A1); The printed mass of AS S-S (15756.43 Da) appears to fit the 153-residue chain without Met and without acetyl; also called AS mutant; apo AS^S–S; source: E. coli, purified, demetallated by dialysis (apo)
For the protein B1, the binding result is reported as “binds”.
